Experiments:
Experiment in all cases: flow cytometry on peripheral blood lymphocytes
[1] = biological target: T1, chimpanzee CD4 on lymphocytes (chimpanzee, UniProt P16004 26-458)
T1 construct: whole, on cells; also called chimpanzee CD4 cells
Protocol: (§1) It is further desirable for some purposes that the animal be a non-human primate that expresses CD4 comprising a cross-reactive epitope with human CD4 such that it is recognized by the monoclonal antibody. […] Peripheral blood lymphocytes were isolated from whole blood of chimpanzee, rhesus, and cynomolgus monkeys. […] The stained cells were then analyzed by flow cytometry to determine if each of the human monoclonal antibodies bound to endogenous CD4 on the surface of lymphocytes from each of these three non-human primates.

[2] = biological target: T2, rhesus monkey CD4 on lymphocytes (rhesus monkey, UniProt P16003 26-458)
T2 construct: whole, on cells; also called rhesus CD4 cells
Protocol: as §1

[3] = biological target: T3, cynomolgus monkey CD4 on lymphocytes (cynomolgus monkey, UniProt P79185 26-458)
T3 construct: whole, on cells; also called cynomolgus CD4 cells
Protocol: as §1

T2 sequence (P16003 26-458): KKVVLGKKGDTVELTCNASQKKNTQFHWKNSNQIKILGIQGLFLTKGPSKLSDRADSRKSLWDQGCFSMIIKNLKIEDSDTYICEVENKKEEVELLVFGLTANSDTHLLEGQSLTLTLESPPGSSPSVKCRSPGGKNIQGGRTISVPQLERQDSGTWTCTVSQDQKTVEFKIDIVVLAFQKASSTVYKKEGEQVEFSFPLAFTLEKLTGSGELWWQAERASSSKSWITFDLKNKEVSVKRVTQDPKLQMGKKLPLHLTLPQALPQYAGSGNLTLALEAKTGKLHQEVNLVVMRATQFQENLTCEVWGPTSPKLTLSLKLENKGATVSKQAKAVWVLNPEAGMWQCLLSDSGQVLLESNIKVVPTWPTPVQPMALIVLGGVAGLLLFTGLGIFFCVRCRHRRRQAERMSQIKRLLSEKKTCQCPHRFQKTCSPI
T3 sequence (P79185 26-458): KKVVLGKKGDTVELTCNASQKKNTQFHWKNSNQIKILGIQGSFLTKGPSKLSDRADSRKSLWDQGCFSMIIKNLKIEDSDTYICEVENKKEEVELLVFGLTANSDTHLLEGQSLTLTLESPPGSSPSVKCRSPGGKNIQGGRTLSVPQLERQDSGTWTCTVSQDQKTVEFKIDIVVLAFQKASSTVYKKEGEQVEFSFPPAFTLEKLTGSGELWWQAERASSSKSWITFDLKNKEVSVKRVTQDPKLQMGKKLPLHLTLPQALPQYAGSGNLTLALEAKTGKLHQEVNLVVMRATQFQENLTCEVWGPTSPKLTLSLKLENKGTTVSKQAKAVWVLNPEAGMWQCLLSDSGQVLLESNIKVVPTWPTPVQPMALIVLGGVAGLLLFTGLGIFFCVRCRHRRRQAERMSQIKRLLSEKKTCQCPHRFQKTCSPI
T1 sequence (P16004 26-458): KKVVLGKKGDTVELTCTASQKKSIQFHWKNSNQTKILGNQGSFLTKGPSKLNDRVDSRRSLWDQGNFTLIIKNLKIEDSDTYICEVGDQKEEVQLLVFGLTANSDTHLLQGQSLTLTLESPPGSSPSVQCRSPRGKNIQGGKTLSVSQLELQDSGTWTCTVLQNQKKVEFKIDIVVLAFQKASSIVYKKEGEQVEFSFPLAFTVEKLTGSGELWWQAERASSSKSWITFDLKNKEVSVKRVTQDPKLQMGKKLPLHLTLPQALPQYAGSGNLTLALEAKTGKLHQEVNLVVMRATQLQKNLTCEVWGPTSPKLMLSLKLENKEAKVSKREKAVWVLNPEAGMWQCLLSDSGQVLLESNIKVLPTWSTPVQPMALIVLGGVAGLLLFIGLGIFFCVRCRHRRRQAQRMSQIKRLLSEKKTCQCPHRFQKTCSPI

binding result [1]: binds | binding result [2]: binds | binding result [3]: binds
B1: 4D1 (antibody, V domains shown)
VH: EVQLVQSGAEVKKPGESLKISCKGSGYSFTGYWIGWVRQMPGKGLEWMGIIYPGDSDTTYSPSFQGQVTISADKSISTAYLQWSSLKASDTAMYYCARDQLGLFDYWGQGTLVTVSS
VL: DIQMTQSPSSLSASVGDRVTITCRASQGISSWLAWYQQKPEKAPKSLIYSASSLQSGVPSRFSGSGSGTDFTLTISSLQPEDFATYYCQQYDSYPYTFGQGTKLEIK
notes: human IgG1 kappa from hybridoma; h.c; VH5-51, DHQ52, JH4; VkL15, Jk2; also called 4D1.4
